From PMC5440694 (Nature Communications, 2017)

Columns and labels:
[1] = molecular target: T1, biotinylated HA0 ectodomain of A/Perth/16/2009 (H3N2) (Influenza A virus A/Perth/16/2009 (H3N2), UniProt C6KNH7, strain, biotin on the BirA biotinylation site); assay: BLI; settings: both partners purified
[2] = molecular target: biotinylated HA0 ectodomain of A/Panama/2007/1999 (H3N2) (Influenza A virus A/Panama/2007/1999 …, UniProt Q1K9M3, strain, biotin on the BirA biotinylation site); assay: BLI; settings: both partners purified
[3] = molecular target: biotinylated HA0 ectodomain of A/Beijing/262/1995 (H1N1) (Influenza A virus A/Beijing/262/1995 …, UniProt Q6WG01, strain, biotin on the BirA biotinylation site); assay: BLI; settings: both partners purified
[4] = molecular target: T2, biotinylated HA0 ectodomain of A/Solomon Islands/3/2006 (H1N1) (Influenza A virus A/Solomon …, UniProt A7Y8I1, strain, biotin on the BirA biotinylation site); assay: BLI; settings: both partners purified
[5] = molecular target: biotinylated HA0 ectodomain of A/New Caledonia/20/1999 (H1N1) (Influenza A virus A/New …, UniProt Q6WG00, strain, biotin on the BirA biotinylation site); assay: BLI; settings: both partners purified
[6] = molecular target: T1, biotinylated HA0 ectodomain of …; assay: yeast display selection (FACS) with next-generation sequencing; settings: one partner purified
[7] = molecular target: T2, biotinylated HA0 ectodomain of …; assay: as above; settings: one partner purified
[8] = molecular target: T1, biotinylated HA0 ectodomain of …; assay: BLI; settings: one partner purified

B1: wild-type C05 Fab (VVSAGW), expressed in insect cells (Fab, V domains shown)
VH: QVQLQESGGGLVQPGESLRLSCVGSGSSFGESTLSYYAVSWVRQAPGKGLEWLSIINAGGGDIDYADSVEGRFTISRDNSKETLYLQMTNLRVEDTGVYYCAKHMSMQQVVSAGWERADLVGDAFDVWGQGTMVTVSS
VL: DIQLTQSPSSLSASVGDRVTLTCQASQDIRKFLNWYQQKPGKGPKLLIYDASNLQRGVPSRFSGGGSGTDFTLIISSLQPEDVGTYYCQQYDGLPFTFGGGTKVVIK
Kd [1]: 23.4 ± 0.1 nM
Kd [2]: 926 ± 12.1 nM
Kd [3]: 23.1 ± 0.6 nM
Kd [4]: 91.4 ± 0.9 nM
Kd [5]: 6.3 ± 0.1 nM

B2: C05 Fab variant VPGAGW displayed on yeast (Fab, V domains shown)
VH: QVQLQESGGGLVQPGESLRLSCVGSGSSFGESTLSYYAVSWVRQAPGKGLEWLSIINAGGGDIDYADSVEGRFTISRDNSKETLYLQMTNLRVEDTGVYYCAKHMSMQQVPGAGWERADLVGDAFDVWGQGTMVTVSS
VL: DIQLTQSPSSLSASVGDRVTLTCQASQDIRKFLNWYQQKPGKGPKLLIYDASNLQRGVPSRFSGGGSGTDFTLIISSLQPEDVGTYYCQQYDGLPFTFGGGTKVVIK
binding result [6]: binds
binding result [7]: binds

B3: C05 Fab variant VVDSGW displayed on yeast (Fab, V domains shown)
VH: QVQLQESGGGLVQPGESLRLSCVGSGSSFGESTLSYYAVSWVRQAPGKGLEWLSIINAGGGDIDYADSVEGRFTISRDNSKETLYLQMTNLRVEDTGVYYCAKHMSMQQVVDSGWERADLVGDAFDVWGQGTMVTVSS
VL: DIQLTQSPSSLSASVGDRVTLTCQASQDIRKFLNWYQQKPGKGPKLLIYDASNLQRGVPSRFSGGGSGTDFTLIISSLQPEDVGTYYCQQYDGLPFTFGGGTKVVIK
binding result [6]: binds

B4: C05 Fab variant VATSGW displayed on yeast (Fab, V domains shown)
VH: QVQLQESGGGLVQPGESLRLSCVGSGSSFGESTLSYYAVSWVRQAPGKGLEWLSIINAGGGDIDYADSVEGRFTISRDNSKETLYLQMTNLRVEDTGVYYCAKHMSMQQVATSGWERADLVGDAFDVWGQGTMVTVSS
VL: DIQLTQSPSSLSASVGDRVTLTCQASQDIRKFLNWYQQKPGKGPKLLIYDASNLQRGVPSRFSGGGSGTDFTLIISSLQPEDVGTYYCQQYDGLPFTFGGGTKVVIK
binding result [7]: binds

B5: C05 Fab variant WYVHLW displayed on yeast (Fab, V domains shown)
VH: QVQLQESGGGLVQPGESLRLSCVGSGSSFGESTLSYYAVSWVRQAPGKGLEWLSIINAGGGDIDYADSVEGRFTISRDNSKETLYLQMTNLRVEDTGVYYCAKHMSMQQWYVHLWERADLVGDAFDVWGQGTMVTVSS
VL: DIQLTQSPSSLSASVGDRVTLTCQASQDIRKFLNWYQQKPGKGPKLLIYDASNLQRGVPSRFSGGGSGTDFTLIISSLQPEDVGTYYCQQYDGLPFTFGGGTKVVIK
binding result [6]: binds

B6: C05 Fab variant WPEIGF displayed on yeast (Fab, V domains shown)
VH: QVQLQESGGGLVQPGESLRLSCVGSGSSFGESTLSYYAVSWVRQAPGKGLEWLSIINAGGGDIDYADSVEGRFTISRDNSKETLYLQMTNLRVEDTGVYYCAKHMSMQQWPEIGFERADLVGDAFDVWGQGTMVTVSS
VL: DIQLTQSPSSLSASVGDRVTLTCQASQDIRKFLNWYQQKPGKGPKLLIYDASNLQRGVPSRFSGGGSGTDFTLIISSLQPEDVGTYYCQQYDGLPFTFGGGTKVVIK
binding result [7]: binds

B7: C05 Fab variant VEEAGW, in supernatant of transfected 293T cells (Fab, V domains shown)
VH: QVQLQESGGGLVQPGESLRLSCVGSGSSFGESTLSYYAVSWVRQAPGKGLEWLSIINAGGGDIDYADSVEGRFTISRDNSKETLYLQMTNLRVEDTGVYYCAKHMSMQQVEEAGWERADLVGDAFDVWGQGTMVTVSS
VL: DIQLTQSPSSLSASVGDRVTLTCQASQDIRKFLNWYQQKPGKGPKLLIYDASNLQRGVPSRFSGGGSGTDFTLIISSLQPEDVGTYYCQQYDGLPFTFGGGTKVVIK
notes: not shown: His6, C-terminal, kept
binding result [8]: binds

B8: C05 Fab variant YEPAGW displayed on yeast (Fab, V domains shown)
VH: QVQLQESGGGLVQPGESLRLSCVGSGSSFGESTLSYYAVSWVRQAPGKGLEWLSIINAGGGDIDYADSVEGRFTISRDNSKETLYLQMTNLRVEDTGVYYCAKHMSMQQYEPAGWERADLVGDAFDVWGQGTMVTVSS
VL: DIQLTQSPSSLSASVGDRVTLTCQASQDIRKFLNWYQQKPGKGPKLLIYDASNLQRGVPSRFSGGGSGTDFTLIISSLQPEDVGTYYCQQYDGLPFTFGGGTKVVIK
binding result [6]: binds

B9: C05 Fab variant VVDAGW, in supernatant of transfected 293T cells (Fab, V domains shown)
VH: QVQLQESGGGLVQPGESLRLSCVGSGSSFGESTLSYYAVSWVRQAPGKGLEWLSIINAGGGDIDYADSVEGRFTISRDNSKETLYLQMTNLRVEDTGVYYCAKHMSMQQVVDAGWERADLVGDAFDVWGQGTMVTVSS
VL: DIQLTQSPSSLSASVGDRVTLTCQASQDIRKFLNWYQQKPGKGPKLLIYDASNLQRGVPSRFSGGGSGTDFTLIISSLQPEDVGTYYCQQYDGLPFTFGGGTKVVIK
binding result [8]: binds

B10: C05 Fab variant VVGSGW displayed on yeast (Fab, V domains shown)
VH: QVQLQESGGGLVQPGESLRLSCVGSGSSFGESTLSYYAVSWVRQAPGKGLEWLSIINAGGGDIDYADSVEGRFTISRDNSKETLYLQMTNLRVEDTGVYYCAKHMSMQQVVGSGWERADLVGDAFDVWGQGTMVTVSS
VL: DIQLTQSPSSLSASVGDRVTLTCQASQDIRKFLNWYQQKPGKGPKLLIYDASNLQRGVPSRFSGGGSGTDFTLIISSLQPEDVGTYYCQQYDGLPFTFGGGTKVVIK
binding result [6]: binds
binding result [7]: binds

B11: C05 Fab variant VVDSGW, in supernatant of transfected 293T cells (Fab, V domains shown)
VH: QVQLQESGGGLVQPGESLRLSCVGSGSSFGESTLSYYAVSWVRQAPGKGLEWLSIINAGGGDIDYADSVEGRFTISRDNSKETLYLQMTNLRVEDTGVYYCAKHMSMQQVVDSGWERADLVGDAFDVWGQGTMVTVSS
VL: DIQLTQSPSSLSASVGDRVTLTCQASQDIRKFLNWYQQKPGKGPKLLIYDASNLQRGVPSRFSGGGSGTDFTLIISSLQPEDVGTYYCQQYDGLPFTFGGGTKVVIK
notes: as for B7
binding result [8]: binds

B12: C05 Fab variant YDPGGW displayed on yeast (Fab, V domains shown)
VH: QVQLQESGGGLVQPGESLRLSCVGSGSSFGESTLSYYAVSWVRQAPGKGLEWLSIINAGGGDIDYADSVEGRFTISRDNSKETLYLQMTNLRVEDTGVYYCAKHMSMQQYDPGGWERADLVGDAFDVWGQGTMVTVSS
VL: DIQLTQSPSSLSASVGDRVTLTCQASQDIRKFLNWYQQKPGKGPKLLIYDASNLQRGVPSRFSGGGSGTDFTLIISSLQPEDVGTYYCQQYDGLPFTFGGGTKVVIK
binding result [6]: binds

B13: C05 Fab variant IPGSGW displayed on yeast (Fab, V domains shown)
VH: QVQLQESGGGLVQPGESLRLSCVGSGSSFGESTLSYYAVSWVRQAPGKGLEWLSIINAGGGDIDYADSVEGRFTISRDNSKETLYLQMTNLRVEDTGVYYCAKHMSMQQIPGSGWERADLVGDAFDVWGQGTMVTVSS
VL: DIQLTQSPSSLSASVGDRVTLTCQASQDIRKFLNWYQQKPGKGPKLLIYDASNLQRGVPSRFSGGGSGTDFTLIISSLQPEDVGTYYCQQYDGLPFTFGGGTKVVIK
binding result [7]: binds

B14: C05 Fab variant VVEAGW, in supernatant of transfected 293T cells (Fab, V domains shown)
VH: QVQLQESGGGLVQPGESLRLSCVGSGSSFGESTLSYYAVSWVRQAPGKGLEWLSIINAGGGDIDYADSVEGRFTISRDNSKETLYLQMTNLRVEDTGVYYCAKHMSMQQVVEAGWERADLVGDAFDVWGQGTMVTVSS
VL: DIQLTQSPSSLSASVGDRVTLTCQASQDIRKFLNWYQQKPGKGPKLLIYDASNLQRGVPSRFSGGGSGTDFTLIISSLQPEDVGTYYCQQYDGLPFTFGGGTKVVIK
binding result [8]: binds

B15: C05 Fab variant VASSGW displayed on yeast (Fab, V domains shown)
VH: QVQLQESGGGLVQPGESLRLSCVGSGSSFGESTLSYYAVSWVRQAPGKGLEWLSIINAGGGDIDYADSVEGRFTISRDNSKETLYLQMTNLRVEDTGVYYCAKHMSMQQVASSGWERADLVGDAFDVWGQGTMVTVSS
VL: DIQLTQSPSSLSASVGDRVTLTCQASQDIRKFLNWYQQKPGKGPKLLIYDASNLQRGVPSRFSGGGSGTDFTLIISSLQPEDVGTYYCQQYDGLPFTFGGGTKVVIK
binding result [7]: binds

B16: C05 Fab variant LPGGGW displayed on yeast (Fab, V domains shown)
VH: QVQLQESGGGLVQPGESLRLSCVGSGSSFGESTLSYYAVSWVRQAPGKGLEWLSIINAGGGDIDYADSVEGRFTISRDNSKETLYLQMTNLRVEDTGVYYCAKHMSMQQLPGGGWERADLVGDAFDVWGQGTMVTVSS
VL: DIQLTQSPSSLSASVGDRVTLTCQASQDIRKFLNWYQQKPGKGPKLLIYDASNLQRGVPSRFSGGGSGTDFTLIISSLQPEDVGTYYCQQYDGLPFTFGGGTKVVIK
binding result [6]: binds

B17: C05 Fab variant VASAGW displayed on yeast (Fab, V domains shown)
VH: QVQLQESGGGLVQPGESLRLSCVGSGSSFGESTLSYYAVSWVRQAPGKGLEWLSIINAGGGDIDYADSVEGRFTISRDNSKETLYLQMTNLRVEDTGVYYCAKHMSMQQVASAGWERADLVGDAFDVWGQGTMVTVSS
VL: DIQLTQSPSSLSASVGDRVTLTCQASQDIRKFLNWYQQKPGKGPKLLIYDASNLQRGVPSRFSGGGSGTDFTLIISSLQPEDVGTYYCQQYDGLPFTFGGGTKVVIK
binding result [6]: binds

B18: C05 Fab variant LPSSGW displayed on yeast (Fab, V domains shown)
VH: QVQLQESGGGLVQPGESLRLSCVGSGSSFGESTLSYYAVSWVRQAPGKGLEWLSIINAGGGDIDYADSVEGRFTISRDNSKETLYLQMTNLRVEDTGVYYCAKHMSMQQLPSSGWERADLVGDAFDVWGQGTMVTVSS
VL: DIQLTQSPSSLSASVGDRVTLTCQASQDIRKFLNWYQQKPGKGPKLLIYDASNLQRGVPSRFSGGGSGTDFTLIISSLQPEDVGTYYCQQYDGLPFTFGGGTKVVIK
binding result [7]: binds
